Measurements published in patent US20040229298A1.
Values joined by “and” are separate entries in the source; they are usually repeats but may differ in a detail not shown here. Equal entries are not always repeated.

Assays:
[1] = molecular target: HPV16 E6 PDZ ligand peptide (biotinylated C-terminal peptide of the E6 protein of HPV 16) (human papillomavirus 16) (UniProt P03126); experiment: G assay ELISA, signal over GST-only well
[2] = molecular target: HPV16 E6 PDZ ligand peptide (biotinylated C-terminal peptide of the E6 protein of HPV 16) (human papillomavirus 16) (UniProt P03126); experiment: G assay ELISA, immobilised GST-PDZ, 10 uM biotinylated peptide
[3] = molecular target: GST-Magi3 PDZ domain 1 (human) (UniProt Q5TCQ9); experiment: Matrix/G assay ELISA, E6 peptide titrated on GST-PDZ
Sequence of GST-Magi3 PDZ domain 1 (human) (Q5TCQ9 other isoform, or with tags, fused parts or gaps limits assumed, form in doubt): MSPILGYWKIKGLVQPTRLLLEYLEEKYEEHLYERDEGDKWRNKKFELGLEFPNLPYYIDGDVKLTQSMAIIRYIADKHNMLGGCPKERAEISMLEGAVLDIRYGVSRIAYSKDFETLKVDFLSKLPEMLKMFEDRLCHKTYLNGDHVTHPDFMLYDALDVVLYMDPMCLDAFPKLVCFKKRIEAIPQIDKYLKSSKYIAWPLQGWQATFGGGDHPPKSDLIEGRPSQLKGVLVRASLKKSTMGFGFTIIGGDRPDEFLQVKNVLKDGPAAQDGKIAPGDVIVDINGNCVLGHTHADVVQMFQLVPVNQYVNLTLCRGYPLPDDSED

[4] = molecular target: GST-VARTUL PDZ domain (number not stated) (human) (UniProt Q14160); experiment: as above
Sequence of GST-VARTUL PDZ domain (number not stated) (human) (Q14160 other isoform, or with tags, fused parts or gaps limits assumed): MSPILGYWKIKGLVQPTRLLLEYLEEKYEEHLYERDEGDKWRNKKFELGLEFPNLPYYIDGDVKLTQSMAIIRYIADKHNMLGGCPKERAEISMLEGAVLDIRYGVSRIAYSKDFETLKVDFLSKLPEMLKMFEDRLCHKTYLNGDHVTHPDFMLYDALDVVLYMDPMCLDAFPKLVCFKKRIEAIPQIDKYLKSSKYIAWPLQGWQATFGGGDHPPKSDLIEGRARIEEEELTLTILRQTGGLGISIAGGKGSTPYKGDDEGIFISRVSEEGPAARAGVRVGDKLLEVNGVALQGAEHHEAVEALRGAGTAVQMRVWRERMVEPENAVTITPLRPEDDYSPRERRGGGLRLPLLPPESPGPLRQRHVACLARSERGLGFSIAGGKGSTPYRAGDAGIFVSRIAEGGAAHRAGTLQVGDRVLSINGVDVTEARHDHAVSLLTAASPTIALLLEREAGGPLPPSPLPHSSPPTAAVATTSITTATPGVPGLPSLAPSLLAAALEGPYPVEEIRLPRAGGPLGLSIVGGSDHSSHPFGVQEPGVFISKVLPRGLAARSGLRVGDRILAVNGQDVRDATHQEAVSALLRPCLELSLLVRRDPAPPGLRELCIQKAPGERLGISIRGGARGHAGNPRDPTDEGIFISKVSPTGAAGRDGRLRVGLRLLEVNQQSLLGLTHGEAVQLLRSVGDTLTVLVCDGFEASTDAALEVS

[5] = molecular target: GST-Magi3 PDZ domain 1 (human) (UniProt Q5TCQ9); experiment: G assay ELISA, E6 PL peptide titrated on constant GST-PDZ
[6] = molecular target: GST-VARTUL PDZ domain (number not stated) (human) (UniProt Q14160); experiment: as above
[7] = molecular target: GST-DLG-6 PDZ domain 1, clone #333.1 (human) (UniProt Q96JB8); experiment: G assay ELISA, 10 uM biotin peptide on anti-GST-captured GST-PDZ
Sequence of GST-DLG-6 PDZ domain 1, clone #333.1 (human) (Q96JB8 other isoform, or with tags, fused parts or gaps): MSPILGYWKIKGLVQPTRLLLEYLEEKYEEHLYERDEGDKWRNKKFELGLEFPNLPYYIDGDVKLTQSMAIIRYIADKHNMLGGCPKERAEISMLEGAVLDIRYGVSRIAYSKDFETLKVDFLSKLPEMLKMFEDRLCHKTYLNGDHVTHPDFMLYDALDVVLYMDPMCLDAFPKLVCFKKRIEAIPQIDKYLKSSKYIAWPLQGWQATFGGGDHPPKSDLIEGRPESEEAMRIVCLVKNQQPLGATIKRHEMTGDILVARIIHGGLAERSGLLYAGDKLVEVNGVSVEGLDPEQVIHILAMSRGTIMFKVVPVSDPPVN

[8] = molecular target: GST-Densin PDZ domain 1 (human); experiment: as above
[9] = molecular target: GST-EBP50 PDZ domain 1, clone #341.1 (human); experiment: as above
[10] = molecular target: GST-EBP50 PDZ domain 2, clone #168.2 (human); experiment: as above
[11] = molecular target: GST-HEMBA 1003117 PDZ domain 1, clone #226.2 (human); experiment: as above
[12] = molecular target: GST-KIAA1526 PDZ domain 1, clone #119.1 (human); experiment: as above
[13] = molecular target: GST-KIAA1719 PDZ domain 5 (human); experiment: as above
[14] = molecular target: GST-MAGI 1 PDZ domain 5 (human); experiment: as above
[15] = molecular target: GST-MINT1 PDZ domains 1, 2 (human) (UniProt Q02410); experiment: as above
Sequence of GST-MINT1 PDZ domains 1, 2 (human) (Q02410 other isoform, or with tags, fused parts or gaps limits assumed): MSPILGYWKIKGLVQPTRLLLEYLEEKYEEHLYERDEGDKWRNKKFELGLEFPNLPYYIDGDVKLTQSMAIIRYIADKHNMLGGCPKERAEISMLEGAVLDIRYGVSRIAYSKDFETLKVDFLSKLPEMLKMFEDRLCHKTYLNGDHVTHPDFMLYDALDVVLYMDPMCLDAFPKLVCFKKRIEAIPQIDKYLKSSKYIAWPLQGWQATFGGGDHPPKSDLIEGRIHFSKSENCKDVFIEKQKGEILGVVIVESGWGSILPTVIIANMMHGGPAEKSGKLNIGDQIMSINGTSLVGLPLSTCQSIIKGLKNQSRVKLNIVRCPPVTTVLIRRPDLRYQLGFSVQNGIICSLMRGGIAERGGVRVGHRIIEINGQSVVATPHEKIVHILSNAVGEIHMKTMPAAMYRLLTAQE

[16] = molecular target: GST-Magi2 PDZ domain 3 (human) (UniProt Q86UL8); experiment: as above
Sequence of GST-Magi2 PDZ domain 3 (human) (Q86UL8 other isoform, or with tags, fused parts or gaps limits assumed, form in doubt): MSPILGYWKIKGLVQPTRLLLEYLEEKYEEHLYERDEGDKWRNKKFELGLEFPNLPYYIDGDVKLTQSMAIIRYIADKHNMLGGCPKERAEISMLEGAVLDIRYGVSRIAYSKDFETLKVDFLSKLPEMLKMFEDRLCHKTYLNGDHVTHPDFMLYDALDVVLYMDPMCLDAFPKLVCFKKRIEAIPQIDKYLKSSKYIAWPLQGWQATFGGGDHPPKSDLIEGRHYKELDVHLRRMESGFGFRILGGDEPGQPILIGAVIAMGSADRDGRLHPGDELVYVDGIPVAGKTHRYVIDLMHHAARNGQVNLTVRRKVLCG

[17] = molecular target: GST-PAR3 PDZ domain 3, clone #278.1 (human); experiment: as above
[18] = molecular target: GST-PIST PDZ domain 1 (human); experiment: as above
[19] = molecular target: GST-PTPL1 PDZ domain 2 (human); experiment: as above

Substance: GST-INADL PDZ domain 3 fusion protein
- OD S/N [1]: 1.86
- Ave OD [2]: 0.485 A450 nm

Substance: GST-Magi2 PDZ domain 5 fusion protein (from UniProt Q86UL8 920-1010)
- OD S/N [1]: 3.93
- Ave OD [2]: 0.651 A450 nm

Substance: GST-NeDLG PDZ domain 1 fusion protein
- OD S/N [1]: 1.98
- Ave OD [2]: 0.516 A450 nm

Substance: GST-PDZK1 PDZ domain 3 fusion protein
- OD S/N [1]: 1.92
- Ave OD [2]: 0.5 A450 nm

Substance: HPV16 E6 C-terminal PDZ ligand peptide (20 mer, biotinylated) (from UniProt P03126 139-158)
- EC50 [3]: 310 nM
- EC50 [4]: 940 nM
- EC50 [5]: 310 nM
- EC50 [6]: 940 nM
- Ave OD [7]: 0.349 A450 nm
- OD S/N (ratio to GST only well) [7]: 2.04
- Ave OD [8]: 0.42 A450 nm and 0.35 A450 nm
- OD S/N (ratio to GST only well) [8]: 1.96 and 1.82
- Ave OD [9]: 0.43 A450 nm
- OD S/N (ratio to GST only well) [9]: 1.65
- Ave OD [10]: 0.345 A450 nm
- OD S/N (ratio to GST only well) [10]: 1.99
- Ave OD [11]: 0.36 A450 nm
- OD S/N (ratio to GST only well) [11]: 1.66
- Ave OD [12]: 0.425 A450 nm
- OD S/N (ratio to GST only well) [12]: 1.38
- Ave OD [13]: 0.39 A450 nm
- OD S/N (ratio to GST only well) [13]: 1.81
- Ave OD [14]: 0.432 A450 nm
- OD S/N (ratio to GST only well) [14]: 1.77
- Ave OD [15]: 0.365 A450 nm
- OD S/N (ratio to GST only well) [15]: 1.42
- Ave OD [16]: 0.416 A450 nm and 0.359 A450 nm
- OD S/N (ratio to GST only well) [16]: 1.98 and 1.65
- Ave OD [17]: 0.352 A450 nm
- OD S/N (ratio to GST only well) [17]: 1.8
- Ave OD [18]: 0.386 A450 nm
- OD S/N (ratio to GST only well) [18]: 1.96
- Ave OD [19]: 0.348 A450 nm
- OD S/N (ratio to GST only well) [19]: 1.8
